According to US20070160982A1 (University of Texas, published 2007):

Target: GST-F2F3 (GST fusion of CPSF30 zinc fingers F2F3, amino acids 61-121) (UniProt P08515 1-218 = GST)

B1: M186 mutant NS1A protein (other)
chain: MDSNTVSSFQVDCFLWHVRKQVVDQELGDAPFLDRLRRDQKSLRGRGSTLGLNIEAATHVGKQIVEKILKEESDEALKMTMASTPASRYITDMTIEELSRDWFMLMPKQKVEGPLCIRIDQAIMDKNIMLKANFSVIFDRLETLILLRAFTEEGAIVGEISPLPSFPGHTIEDVKNAIGVLIGRFLRYDNTVRVSKTLQRFAWGSSNENGRPPLTPKQKRKMARTARSKVRRDKMAD
modifications: 35S-methionine label (in vitro translated)
  binding result: no binding
